Like-named read-outs stand apart in the source and are kept apart here.
Legend:
[1] = test system: T1, GST-ASPP2 (693-1128), non-phosphorylated
T1 sequence: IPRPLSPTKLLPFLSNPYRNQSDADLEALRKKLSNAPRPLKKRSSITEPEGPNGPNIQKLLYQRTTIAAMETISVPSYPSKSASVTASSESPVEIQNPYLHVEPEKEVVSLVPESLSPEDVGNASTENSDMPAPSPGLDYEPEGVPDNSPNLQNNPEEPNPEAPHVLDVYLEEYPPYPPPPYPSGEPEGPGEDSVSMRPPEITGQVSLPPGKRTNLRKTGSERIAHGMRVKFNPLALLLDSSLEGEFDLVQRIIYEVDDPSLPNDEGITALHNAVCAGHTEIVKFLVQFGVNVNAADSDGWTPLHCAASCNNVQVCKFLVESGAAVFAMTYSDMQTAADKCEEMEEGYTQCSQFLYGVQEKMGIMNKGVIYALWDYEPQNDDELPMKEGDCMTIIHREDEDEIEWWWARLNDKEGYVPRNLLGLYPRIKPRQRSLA

[2] = biological target: full length ASPP2, V5-tagged (transfected) (Homo sapiens (Human)) (UniProt Q13625); test: cell-based or functional assay
[3] = biological target: full length ASPP2, V5-tagged (transfected) (Homo sapiens (Human)) (UniProt Q13625); test: cell-based or functional assay; remark: listed apart in the source
[4] = biological target: T2, full length ASPP1, V5-tagged (transfected) (Homo sapiens (Human)) (UniProt Q96KQ4); test: cell-based or functional assay
T2 sequence: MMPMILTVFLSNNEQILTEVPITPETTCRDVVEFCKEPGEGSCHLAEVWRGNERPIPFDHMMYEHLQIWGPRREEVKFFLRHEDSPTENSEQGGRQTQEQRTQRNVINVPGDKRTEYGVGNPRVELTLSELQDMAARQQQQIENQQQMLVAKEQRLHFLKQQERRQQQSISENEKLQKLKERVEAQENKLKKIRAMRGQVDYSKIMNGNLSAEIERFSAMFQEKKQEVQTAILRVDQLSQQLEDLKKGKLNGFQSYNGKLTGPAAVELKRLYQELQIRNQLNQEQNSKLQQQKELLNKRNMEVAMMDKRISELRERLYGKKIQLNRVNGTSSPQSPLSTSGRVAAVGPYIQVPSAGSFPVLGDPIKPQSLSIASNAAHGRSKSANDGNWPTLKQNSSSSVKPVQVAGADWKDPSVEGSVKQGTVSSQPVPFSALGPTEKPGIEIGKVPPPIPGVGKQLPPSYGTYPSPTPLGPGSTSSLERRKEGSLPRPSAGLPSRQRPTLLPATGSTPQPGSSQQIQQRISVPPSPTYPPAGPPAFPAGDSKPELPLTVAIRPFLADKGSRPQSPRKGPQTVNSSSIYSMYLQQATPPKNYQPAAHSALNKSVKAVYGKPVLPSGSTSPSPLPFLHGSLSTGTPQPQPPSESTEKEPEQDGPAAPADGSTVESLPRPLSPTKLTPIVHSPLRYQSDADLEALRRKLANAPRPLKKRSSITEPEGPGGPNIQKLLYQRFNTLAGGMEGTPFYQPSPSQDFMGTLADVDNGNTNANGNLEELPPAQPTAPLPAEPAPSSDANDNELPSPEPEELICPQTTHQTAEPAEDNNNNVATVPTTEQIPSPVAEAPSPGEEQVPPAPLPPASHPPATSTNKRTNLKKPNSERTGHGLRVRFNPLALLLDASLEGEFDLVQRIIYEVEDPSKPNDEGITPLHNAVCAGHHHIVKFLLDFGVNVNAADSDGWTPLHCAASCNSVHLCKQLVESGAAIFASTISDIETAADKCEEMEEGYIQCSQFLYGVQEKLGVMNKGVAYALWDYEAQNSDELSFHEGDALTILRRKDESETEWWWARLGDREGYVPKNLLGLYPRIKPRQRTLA

[5] = biological target: purified recombinant Ras loaded with GTP; test: in vitro immunoprecipitation of purified proteins with V5 antibody, intensity of the ras bands (FIG. 14C-D)
[6] = biological target: purified recombinant Ras loaded with GTP; test: in vitro immunoprecipitation with V5 antibody, intensity of the Ras bands (FIG. 23B)
Ras = test: In vitro immunoprecipitation of GDP/GTP-loaded Ras with ASPP1 fragment; type: binding; settings: purified recombinant proteins, V5 immunoprecipitation, band intensity
From the text: FIG. 14 illustrates that purified N-term ASPP1 binds directly in a preferential manner to Ras.GTP. A. Purified ras was loaded with tritium labelled -GDP, -GTP or not loaded as a control. The cpm counts of the tritium are shown. The differences in cpm is due to the fact that GDP and GTP were not tritium-labelled at the same level. B. Relative loading of ras-GDP and ras-GTP, showing the mol of nucleotide bound to ras. Both ras-GDP and ras-GTP were loaded with an equal amount of nucleotide. C. Loaded ras-GDP and ras-GTP with or without purified N-terminus ASPP1 was immunoprecipitated with a V5 antibody against the ASPP1 fragment. The immunoprecipitations were western blotted against ras to see whether there was direct and preferential binding of ras-GDP and ras-GTP to the amino-terminus of ASPP1. D. The intensity of the ras-GDP and ras-GTP bands pulled down by N-term ASPP1 were measured and shown as a graph. N-terminus ASPP1 binds ras-GTP four fold more strongly than it does to ras-GDP;
FIG. 23. Amino-terminus ASPP1 and ASPP2 preferentially bind activated Ras in vitro and in vivo. (A) Sequence homology between the amino-termini of ASPP1 and ASPP2 and the Ras-association domains (RAD) of RGL2 and AF-6. (B) The Ras protein loaded with either tritium-labelled GDP or GTP, was added to V5-tagged recombinant ASPP1 fragment (1-308) and immunoprecipitated with V5 antibody. As a negative control Ras-GDP and Ras-GTP were immunoprecipitated with V5 antibody in the absence of the ASPP1 fragment. The ASPP1 fragment preferentially bound Ras-GTP to Ras-GDP. The intensity of the bands representing immunoprecipitated Ras was quantified and the values shown as a bar graph in the right panel. […] The ASPP proteins were detected with mAbASPP1.54.1 that is known to cross-react with both ASPP1 and ASPP2. […]
2.5 μg of recombinant protein purified from Escherichia coli was incubated in a total volume of 320 μl assay buffer containing 2 μCi [3H] […] An aliquot of each sample had its tritium content measured to check the equal loading of GDP and GTP. […]

## PKA
[1]
  in vitro phosphorylation (P32 incorporation): MAPK1, PKA, p38SAPK and p90rsk were all found to be able to phosphorylate ASPP2

## oncogenic H-RasV12, haemagglutinin-tagged (from UniProt P01112 1-186)
[2]
  transactivation function of p53 (bax-luciferase reporter, Saos2 cells): 3 fold
[3]
  transactivation function of p53 (bax-luciferase reporter, Saos2 cells): 2.5 fold
[4]
  transactivation function of p53 (bax-luciferase reporter, Saos2 cells): 2.5 fold

## oncogenic K-RasV12, haemagglutinin-tagged (from UniProt P79800 1-185)
[3]
  transactivation function of p53 (bax-luciferase reporter, Saos2 cells): 2.5 fold
[4]
  transactivation function of p53 (bax-luciferase reporter, Saos2 cells): 2.5 fold

## p38SAPK
[1]
  in vitro phosphorylation (P32 incorporation): MAPK1, PKA, p38SAPK and p90rsk were all found to be able to phosphorylate ASPP2

## p90rsk
[1]
  in vitro phosphorylation (P32 incorporation): MAPK1, PKA, p38SAPK and p90rsk were all found to be able to phosphorylate ASPP2

## recombinant MAPK1
[1]
  in vitro phosphorylation (P32 incorporation): MAPK1, PKA, p38SAPK and p90rsk were all found to be able to phosphorylate ASPP2
  in vitro phosphorylation assay with 32P-labelled ATP: When compared to p38 SAPK, MAPK1 was clearly able to phosphorylate the ASPP2 fragment in vitro

B1: V5-tagged recombinant ASPP1 fragment (1-308) (protein, not shown: small tags and cut ends)
chain: MMPMILTVFLSNNEQILTEVPITPETTCRDVVEFCKEPGEGSCHLAEVWRGNERPIPFDHMMYEHLQIWGPRREEVKFFLRHEDSPTENSEQGGRQTQEQRTQRNVINVPGDKRTEYGVGNPRVELTLSELQDMAARQQQQIENQQQMLVAKEQRLHFLKQQERRQQQSISENEKLQKLKERVEAQENKLKKIRAMRGQVDYSKIMNGNLSAEIERFSAMFQEKKQEVQTAILRVDQLSQQLEDLKKGKLNGFQSYNGKLTGPAAVELKRLYQELQIRNQLNQEQNSKLQQQKELLNKRNMEVAMMDK
[5]
  fold binding to ras-GTP over ras-GDP: 4 fold
[6]
  fold affinity for Ras-GTP over Ras-GDP: 4 fold

B2: ASPP1 fragment (1-308): V5-tagged recombinant ASPP1 fragment (1-308) containing the Ras-association domain (protein)
chain: B1 chain
modifications: left off: small tags and cut ends
notes: V5-tagged recombinant ASPP1 fragment (1-308) containing the Ras-association domain
Ras
  binding of Ras-GTP relative to Ras-GDP: 4 fold
Ras; listed as N-terminus ASPP1
  binding of Ras-GTP relative to Ras-GDP: four fold
Ras; listed as N-terminus of ASPP1
  binding of Ras-GTP relative to Ras-GDP: four-fold

— patent US20070225240A1, “Screening Assay and Treatment” (priority 2003, published 2007)
